In publication doi:10.1101/2022.10.07.511266:

Biological target: integrin αIIbβ3 (human) (UniProt P05106)
Assay: epifluorescence microscopy of co-clustering on giant unilamellar vesicles

| Substance | stoichiometry N (talin:integrin) | stoichiometry N (scale: talin:integrin) | stoichiometry N (kindlin:integrin) | stoichiometry N (scale: kindlin:integrin) |
| --- | --- | --- | --- | --- |
| eGFP-talin F2-F3 (domain or fragment) | 2 | 3 | – | – |
| mCherry-kindlin-2 (from UniProt Q96AC1 1-680) (natural protein) | – | – | 3 | 4 |
